± gives the standard deviation.
Assay: protein stability index of a GFP-peptide fusion (GPS, HEK-293T) (PSI 1-6); higher = more stable
[1] = treatment: DMSO, c terminus: a fixed tail appended
[2] = treatment: MLN4924 1 uM, 8 h, c terminus: a fixed tail appended
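Also: 24-mer peptide tiles fused after GFP, lentivirally expressed, FACS-sorted into six equal bins by GFP/DsRed ratio, decoded by Illumina sequencing, PSI is the read-weighted mean bin number.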

| Sequence | protein stability index [1] | protein stability index [2] | protein stability index (treatment: DMSO, c terminus: native) | protein stability index (treatment: MLN4924 1 uM, 8 h, c terminus: native) |
| --- | --- | --- | --- | --- |
| PEASHLRFRRFRFQEAAGPREALS [ZNF263] | 3.15 ± 0.42 | 3.31 ± 0.51 |  |  |
| PEVEVQVKRRRTASLSNQECQLYP [SNURF] | 4.77 ± 0.2 | 4.84 ± 0.17 |  |  |
| PEYREWNPELIKPKKLLNPVKASR [FAM107A] | 3.89 ± 0.13 | 4.09 ± 0.39 |  |  |
| PGGPGAMTESLEASEFLEQSMSQT [RSPH3] | 5.27 ± 0.28 | 5.16 ± 0.17 |  |  |
| PGNPSLHSRFVELSEAYRVLSREQ [DNAJC4] | 3.68 ± 0.44 | 3.81 ± 0.21 |  |  |
| PGPGSGPGSGPGHGSGSHPGPASG [SPAG8] | 5.08 ± 0.3 | 4.97 ± 0.26 |  |  |
| PGSQTAVKNSNRYDVEMTDELVGL [FBXO34] | 4.98 ± 0.12 | 4.93 ± 0.27 |  |  |
| PHDRSQGDWAPPPEGGMEQALAGA [ZNF263] | 4.85 ± 0.26 | 4.83 ± 0.31 |  |  |
| PHQREKIDKEIELHRILHHKHVVQ [PLK2] | 3.48 ± 0.19 | 3.73 ± 0.34 |  |  |
| PHVCSLCGKAFYKKYRLTEHERAH [ZNF649] | 4.54 ± 0.24 | 4.66 ± 0.55 |  |  |
| PIHTIILNPHVHLVGDDAACIAYI [CAMK2D] | 2 ± 0.45 | 3.12 ± 1.6 |  |  |
| PIRSRRALPPLRTRSKSDPVLHPS [FAM189A2] | 4.9 ± 0.17 | 4.94 ± 0.16 |  |  |
| PLHAPEAYFPYFKKHNVTAVVRLN [CDC14A] | 2.17 ± 0.094 | 2.08 ± 0.37 |  |  |
| PLLHKDSASLEVVKKDHVALQVPR [CBY2] | 4.31 ± 0.095 | 4.3 ± 0.49 |  |  |
| PLRPLLGFRESDSAKPASLRLLQH [C6orf223] | 3.41 ± 0.39 | 3.6 ± 0.27 |  |  |
| PMDVYETGIEYIVAQGPTNQGLNV [ADAMTSL2] | 3.19 ± 0.68 | 3.54 ± 0.39 |  |  |
| PMMKLKRHFVAQKYKKQIDHMYH [ACSBG2] |  |  | 2.7 ± 0.32 | 2.75 ± 0.32 |
| PMNRRNILVMKHNYSQDAADACDI [NETO1] | 3.59 ± 0.11 | 3.8 ± 0.27 |  |  |
| PNPPTLQEAGLSHTEVLFVQDLTD [FAF2] | 4.54 ± 0.27 | 4.64 ± 0.16 |  |  |
| PNRFLRGHRPPPARSGHRCVADNT [KLHDC10] | 4.04 ± 0.2 | 4.32 ± 0.34 |  |  |
| PNYLANPAFPFIYTPTAEDSAQMQ [ANKRD40] | 3.85 ± 0.28 | 4.08 ± 0.26 |  |  |
| PPETSLPYKWVVEAANLLIPAVGS [MYBL2] | 2.41 ± 0.42 | 2.27 ± 0.29 |  |  |
| PPHREGEAAGGDHETESTSDKETD [CDS1] | 5.67 ± 0.31 | 5.58 ± 0.57 |  |  |

| Sequence | protein stability index [1] | protein stability index [2] | protein stability index (treatment: DMSO, c terminus: native) | protein stability index (treatment: MLN4924 1 uM, 8 h, c terminus: native) |
| --- | --- | --- | --- | --- |
| PPHRRRLLFACSPPPASQPVVKAL [CDC25A] | 2.64 ± 0.22 | 2.98 ± 0.1 |  |  |
| PPKKPSNWRRKHEEFIATIRAAKG [ZC2HC1A] | 3.65 ± 0.15 | 3.82 ± 0.14 |  |  |
| PPQLRPGAPTSLQTEPQDRSPAPM [BCL2L11] |  | 5.18 ± 0.077 |  |  |
| PQKSLFFHHIPSTCQRVNGIKVQN [SLC19A2] | 2.61 ± 0.17 | 2.78 ± 0.27 |  |  |
| PQYAERLLSGAFKKRRLPPVHIHP [FOXJ1] | 2.76 ± 0.22 | 2.9 ± 0.1 |  |  |
| PRGQEGSRQDKPLSPAGSSQEAAD [YJU2B] | 5.54 ± 0.079 | 5.48 ± 0.2 |  |  |
| PRSTVRQKVASNHSPFSSESRALS [TBX5] | 4.11 ± 0.25 | 4.15 ± 0.19 |  |  |
| PSLGPALSTGPRGLCAMPQTGDAF [VENTX] | 3.64 ± 0.089 | 3.6 ± 0.17 |  |  |
| PSNFLEIDVSNPQTVGVGRGRFTT [SNX3] | 3.84 ± 0.29 | 3.8 ± 0.59 |  |  |
| PSTYGGGLSVSSRFSSGGACGLGG [KRT16] | 3.21 ± 0.21 | 3.44 ± 0.2 |  |  |
| PSVPCTPAPQVGTQIRTITEEIRD [KRT36] | 5.07 ± 0.36 | 5.22 ± 0.24 |  |  |
| PTHLSNGQMSTPETPQPSPPGGSG [HNF4A] | 5.15 ± 0.15 | 4.98 ± 0.24 |  |  |
| PTMHLESPALQVMGPAQEAPVAEA [ZNF449] | 5.22 ± 0.17 | 5.21 ± 0.07 |  |  |
| PVENFFVKCNGALINTSDTVQHGA [SDE2] | 3.07 ± 0.12 | 3.08 ± 0.26 |  |  |
| PVFNAMFEHEMEESKKNRVEINDL [SPOPL] | 4.26 ± 0.32 | 4.69 ± 0.21 |  |  |
| PVIEELTNAGFLQTESELQELSEV [FAN1] | 4.87 ± 0.1 | 4.92 ± 0.16 |  |  |
| PVNPELTAGPITGLVYRLNRFRVE [TRIM43] | 2.71 ± 0.29 | 2.85 ± 0.33 |  |  |
| PVPILEKLPLQIDCLAAWEEWLLV [VPS39] | 2.24 ± 0.19 | 2.18 ± 0.27 |  |  |
| PVSMEMDNHMSDKDESCYDNAEAA [INTS3] | 5.53 ± 0.36 | 5.53 ± 0.23 |  |  |
| PVTQIGFEAPPLQGQAAAPASGSG [TRIM55] | 5.14 ± 0.42 | 5.22 ± 0.14 |  |  |
| PYKWVVEAANLLIPAVGSSLSEAL [MYBL2] | 2.88 ± 0.32 | 2.63 ± 0.67 |  |  |
| QAQGARAGGSARRPDTGDDAAGHG [GMCL1] | 5.41 ± 0.4 | 5.57 ± 0.35 |  |  |
| QARQFRTFHHPTYGSCYTVDGVWT [SCNN1D] | 2.21 ± 0.19 | 2.3 ± 0.2 |  |  |

| Sequence | protein stability index [1] | protein stability index [2] | protein stability index (treatment: DMSO, c terminus: native) | protein stability index (treatment: MLN4924 1 uM, 8 h, c terminus: native) |
| --- | --- | --- | --- | --- |
| QAWGSMLEVPAGSRLNLTGLGYFS [CCDC3] | 2.35 ± 0.3 | 1.79 ± 0.2 |  |  |
| QCANKVLQHMKAVQADQERERQRR [LRRC59] | 3.93 ± 0.4 | 4.17 ± 0.18 |  |  |
| QDDLTVVLNEEGICTQKCALNWTD [VPS39] | 4.04 ± 0.49 | 4 ± 0.67 |  |  |
| QEDITKSLLVTELGSSRTPETVRM [IMPA1] | 4.58 ± 0.12 | 4.49 ± 0.34 |  |  |
| QEELPALLKALVSELSEHLRDPLT [FCHSD1] | 2.13 ± 0.31 | 2.25 ± 0.071 |  |  |
| QEFAARAAKQLEYQQLEDDKLSQK [EPB41L3] | 5.17 ± 0.81 |  |  |  |
| QEHQSALEEAKQPKNDNVVIPECA [SMOC2] | 5.51 ± 0.23 | 5.46 ± 0.27 |  |  |
| QENQARTHVLSKEVQHLREEKSKQ [LRRC45] | 5.2 ± 0.29 | 5.36 ± 0.29 |  |  |
| QEVTKLQQQVKTNGAGVTVLRREI [FBXO28] | 3.97 ± 0.25 | 4.03 ± 0.45 |  |  |
| QFSSRDCTRPVPRNGGKYCEGRRT [ADAMTS4] | 4.22 ± 0.47 | 4.51 ± 0.55 |  |  |
| QFTAWPDHGVPEHPTPFLAFLRRV [PTPRD] | 2.44 ± 0.2 | 2.76 ± 0.26 |  |  |
| QGEEPWVQVSPEFKDSAGKSPTGL [ZNF75A] | 4.87 ± 0.22 | 5.04 ± 0.22 |  |  |
| QGEICLCTSRIFVQKSIYSEFLKR [ALDH8A1] | 2.29 ± 0.64 | 2.06 ± 0.49 |  |  |
| QGKADGLYPNPRERSSFYSCAGGR [CHIT1] | 3.64 ± 0.097 | 3.87 ± 0.31 |  |  |
| QGVHQGAGFQDIPKRCLKAREHFG [TSN] | 3.31 ± 0.36 | 2.9 ± 0.27 |  |  |
| QHNLRYSLENTLTESEARYSSQLS [KRT33B] | 4.11 ± 0.27 | 4.11 ± 0.21 |  |  |
| QICGTHRQTKKMFCDMDKSLLCLL [TRIM43] | 2.77 ± 1 | 2.18 ± 0.36 |  |  |
| QIQEFKEAFTLMDQNRDGFIDKED [MYL5] | 5.12 ± 0.26 | 5.19 ± 0.32 |  |  |
| QKLEREARICRLLKHPNIVRLHDS [CAMK2A] | 2.5 ± 0.13 | 2.72 ± 0.17 |  |  |
| QKSGLIRHQKIHSGEKPYKCSDCG [ZNF649] | 3.63 ± 0.52 | 4.04 ± 0.29 |  |  |
| QLAAGRHGDDLKNTKNEISELTRL [KRT71] | 4.58 ± 0.32 | 4.52 ± 0.15 |  |  |
| QLGQRIYQYIQSRFYRSPEVLLGT [DYRK1B] | 2.23 ± 0.16 | 2.53 ± 0.44 |  |  |
| QLNGILLHLESELAQTRAEGQRQA [KRT18] | 2.93 ± 0.26 | 2.86 ± 0.16 |  |  |

| Sequence | protein stability index [1] | protein stability index [2] | protein stability index (treatment: DMSO, c terminus: native) | protein stability index (treatment: MLN4924 1 uM, 8 h, c terminus: native) |
| --- | --- | --- | --- | --- |
| QLVNSSADNMLEYKSWLKNLAKEQ [PPEF2] | 3.24 ± 0.17 | 3.77 ± 0.5 |  |  |
| QLWELGKVLRKAGLSAGYVDAGAE [LPCAT4] | 2.13 ± 0.27 | 2.13 ± 0.36 |  |  |
| QNCKKKLGKLPPQYALELLTVYAW [OAS1] | 2.6 ± 0.58 | 2.25 ± 0.64 |  |  |
| QNLYFNCSSPGVQACSLPASCCID [TSPAN10] | 3.12 ± 0.22 | 3.25 ± 0.2 |  |  |
| QNRRAKLKRSHRESQFLMAKKNFN [HESX1] | 3.43 ± 0.24 | 3.48 ± 0.43 |  |  |
| QNVDVNVHPTKHEVHFLHEESILE [MLH1] | 4.72 ± 0.19 | 4.75 ± 0.056 |  |  |
| QNVRNHIHSCFSDVTCFLLPHPGL [ATL3] | 2.49 ± 0.65 | 2.29 ± 0.55 |  |  |
| QPADVFPRLFKEWNITKLSIEYDS [CRY1] | 2.7 ± 0.32 | 2.92 ± 0.3 |  |  |
| QPGLSFLNLGSGTGYLSTMVGLIL [PCMTD1] | 2.15 ± 0.29 | 2.2 ± 0.31 |  |  |
| QPKEPQLTCDSAQKCHSIGETDEV [ZSCAN9] | 5.43 ± 0.22 | 5.57 ± 0.21 |  |  |
| QPLNFVRFYLPLLIHQHEKVIYLD [GLT8D2] | 3.02 ± 0.59 | 3.03 ± 0.69 |  |  |
| QPPPPRRVTNVGSLLLTPQENESL [WASL] | 4.73 ± 0.083 | 4.66 ± 0.27 |  |  |
| QPPTTTVARSGTPAVENKQQIGDA [PLK2] | 5.4 ± 0.16 | 5.37 ± 0.37 |  |  |
| QQKWTKPARAGSEVEWTEDLALDL [C2CD2L] | 4.37 ± 0.27 | 4.48 ± 0.28 |  |  |
| QQYQEQLDKSTKLVETAIQSLDEP [TRIM63] | 5.1 ± 0.32 | 5.07 ± 0.086 |  |  |
| QRQVWLLFEYPESSGPARGIAIVS [KCNA3] | 2.69 ± 0.21 | 2.48 ± 0.77 |  |  |
| QRTHTGEKPYGCIDCGKAFSQKSC [ZNF649] | 3.47 ± 0.27 | 3.87 ± 0.23 |  |  |
| QSGATISMPCSTDKENGENVGLES [SASS6] | 5.55 ± 0.22 | 5.43 ± 0.27 |  |  |
| QSQLICILKRRSDEALERCQILEL [CCDC89] | 2.52 ± 0.14 | 2.04 ± 0.44 |  |  |
| QTEKTTRVRTVLNEKQLHTLRTCY [ISL2] | 2.66 ± 0.24 | 2.8 ± 0.33 |  |  |

From the supplement of paper PMC10567573
